Patent US20230250134A1 (University of Washington, published 2023)
Where no end group is shown, it is not given here.

Legend:
[1] = target: SARS-COV-2 Spike glycoprotein receptor binding domain (RBD) (SARS-CoV-2, UniProt P0DTC2 319-541)
[2] = target: SARS-COV-2 Spike glycoprotein (SARS-CoV-2, UniProt P0DTC2 14-1208); experiment: estimated Kd for Spike (avidity), Table 10

B1: LCB5-1 (designed binder)
chain: SLEELKEQVKELKKELSPEMRRLIEEALRFLEEGNPAMAMMVLSDLVYQLGDPRVIDLYMLVTKT
B1 showed a Kd [1] of 0.2 nM.

B2: AHB1-2 (designed binder)
chain: DEDLEELERLYRKAEEVAKEAEEASRRGDKERAKELLERALHLFDQVFELAQELQEKLTDEKRQKATHLDKAVHEAADELYQRVR
With B2 the Kd [1] was 0.2 nM.

B3: AHB1-1 (designed binder)
chain: DEDLEELERLYRKAEEVAKEAKDASRRGDDERAKEQMERAMRLFDQVFELAQELQEKQTDGNRQKATHLDKAVKEAADELYQRVR
Work on B3 yielded a Kd [1] of 0.2 nM.

B4: LCB4-1 (designed binder)
chain: QREKRLKQLEMLLEYAIERNDPYLMFDVAVEMLRLAEENNDERIIERAKRILEEYE
B4 was tested, and the Kd [1] was 0.2 nM and the Kd [2] was 0.1 nM.

B5: AHB2-1 (designed binder)
chain: ELEERVMHLLDQVSELAHELLHKLTGEELQRATHFDKWANEAILELIKSDDEREIREIEEEARRILEHLEELARK
B5 gave a Kd [1] of 0.2 nM.

B6: LCB1-36GS-LCB1 (designed binder)
chain: DKEWILQKIYEIMRLLDELGHAEASMRVSDLIYEFMKKGDERLLEEAERLLEEVERGGGSGGGSGGSGGSGGGSGGGSGSGGSGGGGSGGGSDKEWILQKIYEIMRLLDELGHAEASMRVSDLIYEFMKKGDERLLEEAERLLEEVER
For B6, the Kd [1] was 0.2 nM.

B7: LCB7-1 (designed binder)
chain: DDDIRYLIYMAKLRLEQGNPEEAEKVLEMARFLAERLGMEELLKEVRELLRKIEELR
Work on B7 yielded a Kd [1] of 0.2 nM and a Kd [2] of 0.1 nM.

B8: LCB1-24GS-LCB1 (designed binder)
chain: DKEWILQKIYEIMRLLDELGHAEASMRVSDLIYEFMKKGDERLLEEAERLLEEVERGGGSGGGSSGGSGGSSGGGSGGGSDKEWILQKIYEIMRLLDELGHAEASMRVSDLIYEFMKKGDERLLEEAERLLEEVER
Binder B8 has a Kd [1] of 0.2 nM.

B9: LCB8-1 (designed binder)
chain: PIIELLREAKEKNDEFAISDALYLVNELLQRTGDPRLEEVLYLIWRALKEKDPRLLDRAIELFER
Binder B9 has a Kd [1] of 0.2 nM.

B10: LCB8-2 (designed binder)
chain: PVTELLREAKEKNDPMAISDALFLVFELAQRTGDPRLEEVLFLIWRALKEKDPRLLDRAIELFER
With B10 the Kd [1] was 0.2 nM.

B11: 36175 (5_LCB1_linker14) (designed binder)
chain: DKEWILQKIYEIMRLLDELGHAEASMRVSDLIYEFMKKGDERLLEEAERLLEEVERGGSGSSGGSGSGSGDKEWILQKIYEIMRLLDELGHAEASMRVSDLIYEFMKKGDERLLEEAERLLEEVERGGSGSSGGSGSGSGDKEWILQKIYEIMRLLDELGHAEASMRVSDLIYEFMKKGDERLLEEAERLLEEVERGGSGSSGGSGSGSGDKEWILQKIYEIMRLLDELGHAEASMRVSDLIYEFMKKGDERLLEEAERLLEEVERGGSGSSGGSGSGSGDKEWILQKIYEIMRLLDELGHAEASMRVSDLIYEFMKKGDERLLEEAERLLEEVER
Work on B11 yielded a Kd [1] of 0.2 nM and a Kd [2] of 0.1 nM.

B12: LCB3_v1.2 (designed binder)
chain: NDDELHMQMTDLVYEALHFAKDEEIQKHVFQLFEKATKAYKNKDRQKLEKVVEELKELLERLLS
notes: also called LCB3-3
B12 was tested, and the Kd [1] was 0.2 nM.

B13: LCB3-4 (designed binder)
chain: NDDELHMQMTDLVYEALHFAKDEEIQKHVFQLFENATKAYKNKDRQKLEKVVEELKELLERLLS
In the case of B13, the Kd [1] is reported as 0.2 nM.

B14: LCB3_v1.1 (designed binder)
chain: NDDELHMQMTDLVYEALHFAKDEEFQKHVFQLFEKATKAYKNNDRQKLEKVVEELKELLERLLS
B14 was tested, and the Kd [1] was 0.2 nM.

B15: LCB3_v1.4 (designed binder)
chain: NDDELHMQMTDLVYEALHKAKDEEFQKHVFQLFEKATKARKNKDRQKLEKVVEELKELLERLLS
B15 gave a Kd [1] of 0.2 nM.

B16: LCB3_v1.3 (designed binder)
chain: NDDELHMQMTDLVYEALHFAKDEEFQKHVFQLFEKATKAYKNKDRQKLEKVVEELKELLERLLS
B16 was tested, and the Kd [1] was 0.2 nM.

B17: LCB3_v1.5 (designed binder)
chain: NDDELHMQMTDLVYEALHKAKDEEMQKRVFQLFEQADKAYKTKDRQKLEKVVEELKELLERLLS
Work on B17 yielded a Kd [1] of 0.2 nM.

B18: LCB4-2 (designed binder)
chain: DREERLKYLEMLLELAVERNDPYLIFDVAIELLRLAEENNDERIYERAKRILEEVE
B18 was tested, and the Kd [1] was 0.2 nM and the Kd [2] was 0.1 nM.

B19: LCB1-4 (designed binder)
chain: DKENILQKIYEIMKTLDQLGHAEASMQVSDLIYEFMKQGDERLLEEAERLLEEVER
notes: also called LCB1_v1.1
In the case of B19, the Kd [1] is reported as 0.2 nM and the Kd [2] is reported as 0.1 nM.

B20: LCB1_v1.5 (LCB1_v1.3 with N-link Glycosylation) (designed binder)
chain: DKENILQKIYEIMKTLEQLGHAEASMNVSDLIYEFMKQGDERLLEEAERLLEEVER
modifications: also: N-linked glycosylation, site not given here
With B20 the Kd [1] was 0.2 nM and the Kd [2] was 0.1 nM.

B21: LCB1-5 (designed binder)
chain: DKENILQKIYEIMKTLDQLGHAEASMNVSDLIYEFMKQGDERLLEEAERLLEEVER
For B21, the Kd [1] was 0.2 nM and the Kd [2] was 0.1 nM.

B22: LCB1_v1.2 (designed binder)
chain: DKENILQKIYEIMKTLDQLGHAEASMYVSDLIYEFMKQGDERLLEEAERLLEEVER
B22 was tested, and the Kd [1] was 0.2 nM and the Kd [2] was 0.1 nM.

B23: LCB1_v1.4 (designed binder)
chain: DKENILQKIYEIMKTLEQLGHAEASMQVSDLIYEFMKQGDENLLEEAEQLLQEVER
In the case of B23, the Kd [1] is reported as 0.2 nM and the Kd [2] is reported as 0.1 nM.

B24: Mucin_LCB1_v1.1_Cys (designed binder)
chain: AKAKAKAKAKAKAKAKAKAKGGDKENILQKIYEIMKTLDQLGHAEASMQVSDLIYEFMKQGDERLLEEAERLLEEVERC
In the case of B24, the Kd [1] is reported as 0.2 nM and the Kd [2] is reported as 0.1 nM.

B25: LCB3-2 (designed binder)
chain: NDDELLMLVTDLVAEALLFAKDEEIKKRVFTLFELADKAYKNNDRDTLSKVVSELKELLERLQ
For B25, the Kd [1] was 0.2 nM.

B26: LCB1_v1.1_Cys (designed binder)
chain: DKENILQKIYEIMKTLDQLGHAEASMQVSDLIYEFMKQGDERLLEEAERLLEEVERC
Work on B26 yielded a Kd [1] of 0.2 nM and a Kd [2] of 0.1 nM.

B27: LCB2-1 (designed binder)
chain: SDDEDSVRYLLYMAELRYEQGNPEKAKKILEMAEFIAKRNNNEELERLVREVKKRL
With B27 the Kd [1] was 0.2 nM and the Kd [2] was 0.1 nM.

B28: LCB2-2 (designed binder)
chain: SDDEDAVRYLLYMAELLYKQGNPEEAKKLLELAEFIAKRNNNEELERLVREVKKRL
For B28, the Kd [1] was 0.2 nM and the Kd [2] was 0.1 nM.

B29: LCB5-2 (designed binder)
chain: SLEEVKEILKELKKELSPEDRRLIEEALRLLEEGNPAMASMVLSDLVFLLGDPRVIELLMLVTKT
With B29 the Kd [1] was 0.2 nM.

B30: Mucin_LCB1_v1.3 (designed binder)
chain: AKAKAKAKAKAKAKAKAKAKGGDKENILQKIYEIMKTLEQLGHAEASMQVSDLIYEFMKQGDERLLEEAERLLEEVER
For B30, the Kd [1] was 0.2 nM.
